Experimental data published in patent US20100286027A1, “ANTI-BACTERIAL COMPOSITIONS” (priority 2008, published 2010).

Tests used:
[1] = tested on: gram-positive and gram-negative anaerobic bacteria; test: MIC against panel of anaerobic bacteria, comparison with ciprofloxacin; assay type: cell-based; settings: against all the anaerobic bacteria tested; molecular weights ~30000 da and 386 da
[2] = tested on: Prevotella intermedia NB88001; test: MIC against anaerobic bacteria; assay type: cell-based
Escherichia coli (25922) = test: BacTiter-Glo bacterial ATP content viability assay; settings: gram −, +/− SD, n = 3, >100 = activity detected but <50% inhibition
[3] = tested on: Clostridium difficile NB95002; test: MIC against anaerobic bacteria; assay type: cell-based
[4] = tested on: Bacteroides fragilis NB85001; test: MIC against anaerobic bacteria; assay type: cell-based
S. aureus = test: Bacterial growth inhibition (FIG. 14, FIG. 16); assay type: cell-based, Staphylococcus aureus
Method: (§1) Values shown are relative to controls incubated in the absence of LRR domains (100%).
This inhibition was unaffected by the co-administration of MDP, LPS, or PGN.

[5] = tested on: Pseudomonas aeruginosa (27853); test: BacTiter-Glo bacterial ATP content viability assay; settings: gram −, +/− SD, n = 3, >100 = activity detected but <50% inhibition
[6] = tested on: Clostridium perfringens NB95001; assay type: cell-based; settings: anaerobic
E. coli [7] = test: Membrane polarity, DiBAC4 uptake by flow cytometry; settings: FIG. 11 Panel A; 5×10^5 bacteria in 100 μL, 2 hours at 37° C.
[8] = tested on: H. influenzae NB65027-CDS0021* (TolC efflux pump mutant); test: MIC against aerobic gram negative bacteria, efflux pump mutant; assay type: cell-based, Haemophilus influenzae; settings: aerobic gram negative; H. influenzae NB65027-CDS0021*, TolC efflux pump mutant strain
P. aeruginosa NB52019 = test: MIC against aerobic gram negative bacteria; assay type: cell-based, Pseudomonas aeruginosa
L. monocytogenes = test: Bacterial growth inhibition (FIG. 15); assay type: cell-based, Listeria monocytogenes; settings: FIG. 15 Panel C
[9] = tested on: Staphylococcus aureus (29213); test: BacTiter-Glo bacterial ATP content viability assay
H. influenzae NB65027 = settings: aerobic gram negative
B. subtilis [10] = test: Membrane polarity, DiBAC4 uptake by flow cytometry; settings: FIG. 11 Panels B and C; 5×10^5 bacteria in 100 μL, 2 hours at 37° C.
[11] = tested on: Klebsiella pneumoniae (700603); test: BacTiter-Glo bacterial ATP content viability assay; settings: gram −, +/− SD, n = 3, >100 = activity detected but <50% inhibition
[12] = tested on: Stenotrophomonas maltophilia (17666); test: BacTiter-Glo bacterial ATP content viability assay; settings: gram −, +/− SD, n = 3, >100 = activity detected but <50% inhibition
[13] = tested on: P. aeruginosa NB52020* (mexAB/oprM efflux pump mutant); test: MIC against aerobic gram negative bacteria, efflux pump mutant; assay type: cell-based, Pseudomonas aeruginosa; settings: aerobic gram negative; P. aeruginosa NB52020*, mexAB/oprM efflux pump mutant strain
Escherichia coli (8739) = test: BacTiter-Glo bacterial ATP content viability assay; settings: gram −, +/− SD, n = 3, >100 = activity detected but <50% inhibition
[14] = tested on: Fusobacterium nucleatum NB86006; test: MIC against anaerobic bacteria; assay type: cell-based
[15] = tested on: Eubacterium lentum NB94001; test: MIC against anaerobic bacteria; assay type: cell-based
[16] = tested on: E. coli NB27005* (TolC efflux pump mutant); test: MIC against aerobic gram negative bacteria, efflux pump mutant; assay type: cell-based, Escherichia coli; settings: aerobic gram negative; E. coli NB27005*, TolC efflux pump mutant strain
E. coli NB27004 = test: MIC against aerobic gram negative bacteria; assay type: cell-based, Escherichia coli
B. subtilis [17] = test: Bacterial growth inhibition (FIG. 14); assay type: cell-based, Bacillus subtilis; settings: FIG. 14 Panel A; increasing concentrations, relative to controls (100%)
Method: as §1

Bacillus Subtilis (6633) = test: BacTiter-Glo bacterial ATP content viability assay; settings: Bacillus Subtilis (6633), gram +; +/− SD, n = 3; >100 = activity detected but <50% inhibition
[18] = tested on: Propionibacterium acnes NB99001; test: MIC against anaerobic bacteria; assay type: cell-based
[19] = tested on: Clostridium ramosum NB95010; test: MIC against anaerobic bacteria; assay type: cell-based
E. coli [20] = test: Aggregation of E. coli in vitro, light microscopy; parameters: species or system Escherichia coli; settings: 10^6 E. coli in 1 ml PBS, 20 microgram/ml protein, 12 hours
Method: FIG. 4: Aggregation of E. coli in vitro following incubation with recombinant Nod2 LRR domains. E. coli (10^6) in 1 ml of PBS were incubated with either 20 microgram/ml BSA or purified recombinant Nod2 LRR domains for 12 hours. Aliquots of the cultures were inoculated on a coverslipped slide and analyzed by light microscopy using a 63× objective.
The Nod2 positive staining of the bacteria in the cytoplasm of cultured cells could either be a direct interaction or result from the colocalization of Nod2 and bacteria in an unidentified vesicular structure. In order to test the hypothesis that the interaction between Nod2 and E. coli was direct, purified recombinant LRR domains from Nod2 were incubated with E. coli (FIG. 4). […] This supports the hypothesis that Nod2 LRR domains can directly interact with E. coli.

[21] = tested on: Listeria monocytogenes (7644); test: BacTiter-Glo bacterial ATP content viability assay; settings: Listeria monocytogenes (7644), gram +; +/− SD, n = 3; >100 = activity detected but <50% inhibition
[22] = tested on: Salmonella choleraesuis (13076); test: BacTiter-Glo bacterial ATP content viability assay; settings: gram −, +/− SD, n = 3, >100 = activity detected but <50% inhibition

B1: Nod2: purified recombinant LRR domain of Nod2 expressed in E. coli; human NOD2-LRR is SEQ ID NO: 3; ~30000 da (protein, listed as Homo sapiens)
chain: PAAPGEAKSVHAMPGFIWLIRSLYEMQEERLARKAARGLNVGHLKLTFCSVGPTECAALAFVLQHLRRPVALQLDYNSVGDIGVEQLLPCLGVCKALYLRDNNISDRGICKLIECALHCEQLQKLALFNNKLTDGCAHSMAKLLACRQNFLALRLGNNYITAAGAQVLAEGLRGNTSLQFLGFWGNRVGDEGAQALAEALGDHQSLRWLSLVGNNIGSVGAQALALMLAKNVMLEELCLEENHLQDEGVCSLAEGLKKNSSLKILKLSNNCITYLGAEALLQALERNDTILEVWLRGNTFSLEEVDKLGCRDTRLLL
notes: purified recombinant LRR domain of Nod2 expressed in E. coli; ~30000 da
- potency relative to ciprofloxacin on a molar (mmoles/ml) basis [1]: 25-200 times
- minimal inhibitory concentration (MIC) [2]: 4 microgram/ml
- antibacterial activity by bacterial ATP content (IC50), [LRR domain] (Escherichia coli (25922)): >100 microgram/ml
- minimal inhibitory concentration (MIC) [3]: 4 microgram/ml
- minimal inhibitory concentration (MIC) [4]: 4 microgram/ml
- growth of S. aureus (S. aureus; FIG. 14 Panel B, increasing concentrations, relative to controls (100%)): inhibits the growth
- effect of co-administration of MDP, LPS, or PGN on inhibition of S. aureus growth (S. aureus; FIG. 16): unaffected
- growth of S. aureus (S. aureus; FIG. 16): inhibited the growth
- antibacterial activity by bacterial ATP content (IC50), [LRR domain] [5]: None detected
- minimal inhibitory concentration (MIC) [6]: 4 microgram/ml
- membrane polarity of E. coli (depolarised bacteria taking up DiBAC4) (E. coli [7]): influence
- minimal inhibitory concentration (MIC) [8]: 4 microgram/ml
- minimal inhibitory concentration (MIC) (P. aeruginosa NB52019): >128 microgram/ml
- L. monocytogenes growth (L. monocytogenes): inhibited
- antibacterial activity on S. aureus viability under bacterial stress ([9]; FIG. 13, ATP-coupled luminescent assay at 35° C., 37° C. and 39° C.): increased with bacterial stress
- antibacterial activity by bacterial ATP content (IC50), [LRR domain] ([9]; Staphylococcus aureus (29213), gram +, +/− SD, n = 3, >100 = activity detected but <50% inhibition): 6.0 +/− 4.0 microgram/ml
- minimal inhibitory concentration (MIC) (H. influenzae NB65027): >128 microgram/ml
- membrane polarity of B. subtilis (depolarised bacteria taking up DiBAC4) (B. subtilis [10]): influence
- antibacterial activity by bacterial ATP content (IC50), [LRR domain] [11]: None detected
- antibacterial activity by bacterial ATP content (IC50), [LRR domain] [12]: None detected
- minimal inhibitory concentration (MIC) [13]: >128 microgram/ml
- antibacterial activity by bacterial ATP content (IC50), [LRR domain] (Escherichia coli (8739)): >100 microgram/ml
- minimal inhibitory concentration (MIC) [14]: 8 microgram/ml
- minimal inhibitory concentration (MIC) [15]: 8 microgram/ml
- minimal inhibitory concentration (MIC) [16]: 32 microgram/ml
- minimal inhibitory concentration (MIC) (E. coli NB27004): >128 microgram/ml
- growth of B. Subtilis (B. subtilis [17]): inhibits the growth
- antibacterial activity by bacterial ATP content (IC50), [LRR domain] (Bacillus Subtilis (6633)): 3.9 +/− 0.6 microgram/ml
- minimal inhibitory concentration (MIC) [18]: 4 microgram/ml
- minimal inhibitory concentration (MIC) [19]: 4 microgram/ml
- aggregation of E. coli (E. coli [20]): aggregated and debris could be observed
- antibacterial activity by bacterial ATP content (IC50), [LRR domain] [21]: 13.7 +/− 13.0 microgram/ml
- antibacterial activity by bacterial ATP content (IC50), [LRR domain] [22]: None detected
